Test results: US20240343806A1 (EUCURE BEIJING BIOPHARMA, published 2024)

Experiments:
mouse CTLA4 [1] = molecular target: T1, mouse CTLA4 (mouse, UniProt P09793 36-223); assay: flow cytometry on CHO-mCTLA4 cells; SSC vs Anti-mouse-IgGFc-FITC
T1 construct: Expressed on transfected CHO cells; also called mCTLA4

mouse CTLA4 [2] = molecular target: T1, mouse CTLA4; assay: flow cytometry on CHO-mCTLA4 cells; SSC vs Anti-Human-IgGFc-FITC
Description: 25 ul CHO cells were added to each well.
After being washed with PBS (1200 rmp, 5 min) twice, 50 ul of anti-human IgG Fc antibody fluorescein isothiocyanate conjugate (IgG Fc-FITC) was added at 1:100 dilution into each well and was incubated at 4° C. for 30 minutes, followed by PBS wash. The signals for FITC were determined by flow cytometry.

T1 sequence (P09793 36-223 S182T limits assumed): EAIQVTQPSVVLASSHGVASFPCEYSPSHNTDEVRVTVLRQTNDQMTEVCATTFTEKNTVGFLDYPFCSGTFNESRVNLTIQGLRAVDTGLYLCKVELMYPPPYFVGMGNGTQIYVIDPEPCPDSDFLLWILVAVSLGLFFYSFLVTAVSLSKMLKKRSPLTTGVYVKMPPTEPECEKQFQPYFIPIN

Binder | binding result (mouse CTLA4 [1]) | binding result (mouse CTLA4 [2])
CT4-20-7E12 (antibody, V domains shown, Mouse monoclonal antibody purified from ascites fluid) VH: EVKLDETGGGLVQPGRPMKLSCVASGFTFSDYWMNWVRQSPEKGLEWVAQIRNKPYNYETHYSDSVKGRFTISRDDSKSSVYLQMNNLRGEDMGIYYCTGTFAYWGQGTLVTVSA VL: DIQMTQSPTSLSASVGETVTITCGTSENIYGGLNWYQRKQGKSPQLLIYGATNLADGMSSRFSGSGSGRQYSLKISSLHPDDVATYYCQNVLSTPYTFGGGTKLEIK | no binding (tested: 1 ug/ml) | 
CT4-03-4G12-mHvKv-IgG1 (antibody, V domains shown) VH: DVKLVESGGGLVKPGGSLKLSCTASGFTFSSYTMSWVRQTPEKRLEWVATISRGGGYTSYPDSVKGRFTISRDNAKNTLYLQMSSLQSEDTAMYYCARDDYGSSYVHWFAYWGQGTLVTVSA VL: DIQMTQSPASLSASVGETVTITCRAGENIYSYLAWYQQKQGKSPQLLVYNARTLAEGVPSRFSGSGSGTQFSLKINSLQPEDFGSYYCQHHYGSPRTFGGGTKLEIK |  | no binding (tested: 1 ug/ml)

Further lines, results first:

binding result (mouse CTLA4 [1]) | binding result (mouse CTLA4 [2]) | Binder
 | no binding (tested: 1 ug/ml) | CT4-04-13A4-mHvKv-IgG1 (antibody, V domains shown) VH: QVQLQQSGAELVRPGASVTLSCKASGYTFTDYEMHWVKQTPVHGLEWIGVIDPETGGTAYNQKFKGKATLTADRSSSTAYMELRSLTSEDSAVYYCTRGTTVVGLDYWGQGTTLTVSS VL: DIQMTQSPASLSASVGESVTITCRASGNIHNYLAWYQQKQGKSPQLLVYKEKTLTDTVPSRFSGSGSGTQFSLKINSLQPEDFGSYYCQHFWSTPWTFGGGTNLEIK
no binding (tested: 1 ug/ml) |  | CT4-20-6D2 (antibody, V domains shown, Mouse monoclonal antibody purified from ascites fluid) VH: QVQLQQSGAELVRPGASVTLSCKASGYTFTDYEMHWVKQTPVHGLEWIGTIDPETGGTAYNQKFKGKATLTTDKSSSTAYMELRSLTSEDSAVYYCTRRGKYGNYDYVMDYWGQGTSVTVSS VL: DIQMTQSPASLSASVGETVTITCRASGNIHNYLAWYQQKQGKSPQLLVFNAKTLADGVPSRFSGSGSGTQYSLKINSLQPEDFGNYYCQHFWSTPWTFGGGTKLEIK
